Data: patent US20160024487

T1: Lys(Dnp)-ATNATAIPRIVGG-Lys(Abz)
T1 chain: KATNATAIPRIVGGK

T2: Lys(Dnp)-ATNATAGPRIVGG-Lys(Abz)
T2 chain: KATNATAGPRIVGGK

T3: Lys(Dnp)-ATNATKTPRIVGG-Lys(Abz)
T3 chain: KATNATKTPRIVGGK

T4: Lys(Dnp)-ATNATRLPRIVGG-Lys(Abz)
T4 chain: KATNATRLPRIVGGK

T5: Lys(Dnp)-ATNATVPPRIVGG-Lys(Abz)
T5 chain: KATNATVPPRIVGGK

T6: Lys(Dnp)-ATNATYAPRIVGG-Lys(Abz)
T6 chain: KATNATYAPRIVGGK

T7: Lys(Dnp)-ATNATFLPRIVGG-Lys(Abz)
T7 chain: KATNATFLPRIVGGK

B1: Human plasma purified Factor Xa (protein)
chain 1: ANSFLEEMKKGHLERECMEETCSYEEAREVFEDSDKTNEFWNKYKDGDQCETSPCQNQGKCKDGLGEYTCTCLEGFEGKNCELFTRKLCSLDNGDCDQFCHEEQNSVVCSCARGYTLADNGKACIPTGPYPCGKQTLER
chain 2: IVGGQECKDGECPWQALLINEENEGFCGGTILSEFYILTAAHCLYQAKRFKVRVGDRNTEQEEGGEAVHEVEVVIKHNRFTKETYDFDIAVLRLKTPITFRMNVAPACLPERDWAESTLMTQKTGIVSGFGRTHEKGRQSTRLKMLEVPYVDRNSCKLSSSFIITQNMFCAGYDTKQEDACQGDSGGPHVTRFKDTYFVTGIVSWGEGCARKGKYGIYTKVTAFLKWIDRSMKTRGLPKAKSHAPEVITSSPLK
B2: Human plasma purified Factor Xa (Molecular Innovations, Inc) (protein)
chain 1: B1 chain 1
chain 2: B1 chain 2

Assays:
[1] = biological target: T1, Lys(Dnp)-ATNATAIPRIVGG-Lys(Abz)
[2] = biological target: T2, Lys(Dnp)-ATNATAGPRIVGG-Lys(Abz)
[3] = biological target: T3, Lys(Dnp)-ATNATKTPRIVGG-Lys(Abz)
[4] = biological target: T4, Lys(Dnp)-ATNATRLPRIVGG-Lys(Abz)
[5] = biological target: T5, Lys(Dnp)-ATNATVPPRIVGG-Lys(Abz)
[6] = biological target: T6, Lys(Dnp)-ATNATYAPRIVGG-Lys(Abz)
[7] = biological target: T7, Lys(Dnp)-ATNATFLPRIVGG-Lys(Abz)

Protein | FXa kcat/KM [1] [M⁻¹ s⁻¹] | FXa kcat/KM [2] [M⁻¹ s⁻¹] | FXa kcat/KM [3] [M⁻¹ s⁻¹] | FXa kcat/KM [4] [M⁻¹ s⁻¹] | FXa kcat/KM [5] [M⁻¹ s⁻¹] | FXa kcat/KM [6] [M⁻¹ s⁻¹] | FXa kcat/KM [7] [M⁻¹ s⁻¹]
B1 | 220 | 14 | – | – | – | – | –
B2 | – | – | 72 | 1400 | 6.3 | 49 | 530
